Patent US20220281965A1 (AstraZeneca / MedImmune, published 2022)

T1: mature human GDF-15 (human, UniProt Q99988 197-308)
T1 construct: Homodimer; also called hGDF-15; recombinant hu-GDF15
T1 sequence: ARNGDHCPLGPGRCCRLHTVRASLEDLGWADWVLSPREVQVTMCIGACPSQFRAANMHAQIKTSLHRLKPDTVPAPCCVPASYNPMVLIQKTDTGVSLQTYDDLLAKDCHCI

T2: mouse GDF-15 (mouse, UniProt Q9Z0J7 189-303)
T2 construct: also called mGDF-15
T2 sequence: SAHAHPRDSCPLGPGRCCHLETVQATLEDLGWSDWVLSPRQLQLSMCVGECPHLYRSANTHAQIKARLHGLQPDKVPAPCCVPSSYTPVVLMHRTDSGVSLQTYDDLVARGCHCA

T3: biotinylated human H202D GDF-15 variant (human, UniProt Q99988 197-308, biotinylated, sites not stated)
T3 construct: also called Human GDF-15 H202D
T3 chain: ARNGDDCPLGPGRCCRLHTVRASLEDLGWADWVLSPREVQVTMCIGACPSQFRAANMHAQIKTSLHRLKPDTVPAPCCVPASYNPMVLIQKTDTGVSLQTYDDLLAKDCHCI

T4: biotinylated cynomolgus GDF-15 (cynomolgus, UniProt G7PWZ3 197-308, biotinylated, sites not stated)
T4 construct: also called Cyno GDF-15
T4 sequence: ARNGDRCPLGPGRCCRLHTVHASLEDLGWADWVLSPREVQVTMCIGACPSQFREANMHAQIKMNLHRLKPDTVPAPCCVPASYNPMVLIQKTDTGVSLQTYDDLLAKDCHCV


Columns and labels:
[1] = target: T1, mature human GDF-15; assay: HTRF epitope competition; competitor DyLight 650 labelled Antibody A; Europium labelled human GDF-15
Excerpt: Antibodies from the immunizations with human GDF-15, in the form of crude supernatants from the immunization or in the form of purified IgGs, were chosen on the basis that they bind and compete with an epitope recognized by a control anti-GDF-15 antibody “Antibody A”. A biochemical epitope competition format was applied using an HTRF epitope competition assay that measured the binding of DyLight 650 labelled Antibody A to Europium labelled human GDF-15 (Prospec). In the absence of Antibody A binding, there is no detectable FRET fluorescence. When Antibody A binds to GDF-15, the resulting physical proximity between the secondary reagent donor/acceptor pair results in FRET. Competition with an antibody that recognizes the same or similar epitope will result in a dose dependent reduction of the FRET signal. FRET was measured ratiometrically [665 nm (acceptor)/620 nm (donor)] on an Envision plate reader, and IC₅₀ values were determined by curve fitting the data to a four parameter logistic equation using PRISM 6® software (Graphpad).

[2] = target: T2, mouse GDF-15; assay: HTRF binding assay, biotinylated antigen, titration of antibody
Excerpt: (§1) Supernatants generated from the immunizations with human GDF-15 and purified IgGs were screened to identify IgGs with specific binding to human, cynomolgus, or mouse GDF-15. The HTRF (Homogeneous Time Resolved Fluorescence) assay is based on detection of a measurable FRET signal upon binding of a titration of test antibody to biotinylated human H202D GDF-15 variant, cynomolgus GDF-15 and mouse GDF-15. Europium cryptate (EuK) labelled Streptavidin and anti-human IgG XL665 (Cis Bio) were used as secondary detection reagents serving as energy donor and acceptor respectively. In the absence of test antibody binding, there is no detectable FRET fluorescence. When test antibody binds to GDF-15, the resulting physical proximity between the secondary reagent donor/acceptor pair results in FRET. FRET was measured ratiometrically [665 nm (acceptor)/620 nm (donor)] on an Envision plate reader, and data plotted using PRISM 6® software (Graphpad).

[3] = target: T3, biotinylated human H202D GDF-15 variant; assay: as above
Excerpt: as §1

[4] = target: T4, biotinylated cynomolgus GDF-15; assay: as above
Excerpt: as §1

| IC50 [1] | binding result [2] | binding result [3] | binding result [4] | Binder |
| --- | --- | --- | --- | --- |
| 0.485 nM | binds | binds | binds | AB1170028 (antibody, V domains shown) VH: DVKLVESGEGLVKPGGSLKLSCAASGFTFSSFAMSWVRQTPEKRLEWVAYITSGGDYIFYADTVKGRFTISRDNARNTLYLQMSSLKSEDTAMYYCTRDDGYLWFAYWGQGTLVTVSA VL: SIVMTQTPKFLPVSAGDRVTMTCKASQNVGNNVAWYQQKPGQSPKLLIYYASNRYTGVPDRFTGSGSGTDFTFTISSVQVEDLAVYFCQQHYSSPLTFGAGTKLELK |
| 1.36 nM | binds | binds | binds | AB1170047 (antibody, V domains shown) VH: QVQLQQSGPELVKPGASVKLSCKASGYTFTSYDINWVKQRPGQGLEWIGWIYPRDGISKYNEKFKGKATLTVDTSSSTAYMELHSLTSEDSAVYFCAGTYDPAYFDYWGQGTTLTVSS VL: DIVLTQSPATLSVTPGDRVSLSCRASQSISYYLHWYQQKSHESPRLLIKYASQSISGIPSRFSGSGSGTDFTLSINSVETEDFGMYFCQQSNSWPYTFGGGTKLEIK |
| 0.759 nM | binds | binds | binds | AB1170069 (antibody, V domains shown) VH: QVQLQQSGPELVKPGASVKLSCKASGYTFTSYDINWVKQRPGQGLEWIGWIYPRDGISKYNEKFEGKATLTVDTSSSTAYMELHSLTSEDSAVYFCAGTSDPAYFDYWGQGTTLTVSS VL: DIVLTQSPATLSVTPGDRVSLSCRASQSISYYLHWYQQKSHESPRLLIKYASQSISGIPSRFSGSGSGTDFTLSINSVETEDFGMYFCQQSNSWPYTFGGGTKLEIK |
| 6.83 nM | binds | binds | binds | AB1170070 (antibody, V domains shown) VH: EVQLQQSGPELVKPGASVKIPCKASGYTFTDYNMDWVKQSHGKSLEWIGDINPYNGITIYNQKFKGKATLTVDKSSSTAYMELRSLTSEDTAVYYCAREEKLGTSFDYWGQGTTLTVSS VL: DIQMTQSPASLSASVGETVTITCRASENIYSNLAWYQQKQGKSPQLLVYAATNLADGVPSRFSGSGSGTQFSLKINSLQPEDFGSYYCQHFYGTPWTFGGGTKLEIK |
| 97.1 nM | binds | binds | binds | AB1170006 (antibody, V domains shown) VH: EVQLQQSGPELVKPGASVKIPCKASGYTFTDYNMDWVKQSHGKSLEWIGDINPNNGVTIYNQKFKGKATLTVDKSSSTAYMELRSLTSEDTAVFYCAREELTGNAMDYWGQGTSVTVSS VL: DIQMTQSPASLSVSVGETVTITCRASENIYSHLAWYQQKQGKSPQLLVYAATNLADGVPSRFSGSGSGTQYSLKINSLQSEDFGSYYCQHFWGTPWTFGGGTKLEIK |
| 1.95 nM | binds | binds | binds | AB1170043 (antibody, V domains shown) VH: QVTLKESGPGILQSSQTLSLTCSFSGFSLITSGLGVSWIRQPSGKGLEWLAHIYWDDDKRYNPSLKSRLTISKDTSRNQVFLKITSVDTADTATYYCARGGYDGYYDYWGQGTTLTVSS VL: DVVMTQTPLSLPVSLGDQASISCRSSQSIVHSNGNTNLEWYLQKPGQSPKLLIYKVSNRLSGVPDRFSGSGSGTDFTLKISRVEAEDLGVYYCFQGSHVRTFGGGTKLEIK |
| 1.11 nM | binds | binds | binds | AB1170086 (antibody, V domains shown) VH: QVTLKESGPGILQSSQTLSLTCSFSGFSLSTSGMGVSWIRQPSGKGLEWLAHIYWDDDKRYNPSLESRLTISKDTSRNQVFLKITSVDTTDTATYYCARGGYDGYYDYWGQGTTLTVSS VL: DVVMTQTPLSLPVSLGDQASISCRSSQSIVHSNGNTNLEWYLQKPGQSPKLLIYKVSNRLSGVPDRFSGSGSGTDSTLKISRVEAEDLGVYYCFQGSHVRTFGGGTKLEIK |
| 0.758 nM | binds | binds | binds | AB1170010 (antibody, V domains shown) VH: QVTLKESGPGILQPSQTLSLTCSFSGFSLSTYGMGVGWIRQPSGKGLEWLANIWWNDDKYYNSALKSRLTISKDTSNNQVFLKISSVDTADTATYYCAQEVYGWFAYWGQGTLVTVSS VL: DIVMTQSQKFMSTSVGDRVSVTCKASQNVGTNVAWYQQKPGQSPKALIYSASYRYSGVPDRFTGSGSGTDFTLTISNVQSEDLAEYFCQQYNSYPLTFGGGTKLEIK |
| 2.11 nM | binds | binds | binds | AB1170073 (antibody, V domains shown) VH: QVTLKESGPGILQPSQTLSLTCSFSGFSLSTFGMGVGWIRQPSGKGLEWLAHIWWDDDKYYNPALKSRLTISKDTSKNQVFLKIANVDTADTATYYCARIAYDGYLDYWGQGTTLTVSS VL: DIVMTQSQKFMSTSVGDRVSVTCKASQNVGTDVAWYQQKPGQSPKSLIYSASYRYSGVPDRFTGSGSGTDFTLTISNVQSEDLAEYFCQQYNSYPYTFGGGTKLEIK |
| 0.693 nM | binds | binds | binds | AB1170072 (antibody, V domains shown) VH: QVTLKESGPGILQPSQTLSLTCSFSGFSLSTYGMGVGWIRQPSGKGLEWLANIWWNDDKYYNSALKSRLTISKDTSNNQVFLKISSVDTADTATYYCAQMAYSWFAYWGQGTLVTVSS VL: DIVMTQSQKFMSTSVGDRVSVTCKASQNMDTNVAWYQQKPGQSPKALIYSASYRYSGVPDRFTGSGSGTDFTLTISNVQSEDLAEYFCQQYNSYPFTFGSGTKLEIK |
| 0.622 nM | binds | binds | binds | AB1170036 (antibody, V domains shown) VH: DVKLVESGEGLVKPGGSLKLSCAASGFTFSSYAMSWVRQTPEKRLEWVAYISSGGDNIYYADTVKGRFTISRDNARNTLYLQMSSLKSEDTAMYYCTRALVENAYFDYWGQGTTLTVSS VL: DSVLTQSPASLLVSLGQRATISCRASKSVSTSTYSYMHWYQQKPGQPPKLLIKYASYLESGVPARFSGSGSGTDFTLNIHPVEEEDAATYYCQHSREFPWTFGGGTKLEIK |
| 1.42 nM | binds | binds | binds | AB1170040 (antibody, V domains shown) VH: DVKLVESGEGLVKPGGSLKLSCAASGFTFSSYAMSWVRQTPEKRLEWVAYISSGGDYIYYADTVKGRFTISRDNARNTLYLQMSSLKSEDTAMYYCTRALVDNAYFDYWGQGTTLTVSS VL: DIVLTQSPASLAVSLGQRATISCRASKSVSTSSYSYMHWYQQKPGQPPKLLIKYASYLEFGVPARFSGSGSGTDFTLNIHPVEEEDAATYYCQHSREFPWTFGGGTKLEIK |
| 68.3 nM | binds | binds | binds | AB1170148 (antibody, V domains shown) VH: QVQLQQPGAELVRPGTSVKLSCKASGYTFTSYWMHWVKQRPRQGLEWIGLIDPSDNYTNYNQNFKGKATLTVDTSSSTAYMQLGSLTSEDSAVYYCASYDGYSTPSAMDYWGQGTSVTVSS VL: QIVLSQSPAILSASPGEKVTMTCRASSSVNYMHWYQQKPGSSPKPWIYATSNLASGVPARFSGSGSGTSYSLIISRVEAEDAAAYYCQQWSSYPPTFGGGTKLEIK |
